Laboratory results from patent publication US20200181597A1, “Composition and Application of Arginine-depleting Agents for Cancer, Obesity, Metabolic Disorders, and Related Complications and Comorbidities” (THE HONG KONG POLYTECHNIC UNIVERSITY, priority 2018, published 2020).

Tests used:
[1] = Treatment of pre-existing HFD-induced obesity (DIO), male mice; format: in vivo, C57BL/6J male mice
Text: After confirming that concurrent treatment with N-ABD094-rhArg (SEQ ID NO: 50) can effectively prevent HFD-induced obesity and associated complications and comorbidities including insulin resistance, glucose intolerance, hyperglycemia, dyslipidemia, hepatic steatosis, chronic inflammation, and whitening of BAT, next, we studied the efficacy of N-ABD094-rhArg (SEQ ID NO: 50) in reducing obesity and reversing these disorders in mice with pre-existing diet-induced obesity (DIO). C57BL/6J male mice were fed a HFD from 5 week old for 12 weeks to induce obesity and associated complications and comorbidities. They were then stratified according to the bodyweight into 2 groups and treated with either 600-700U N-ABD094-rhArg (SEQ ID NO: 50) or saline as vehicle control at 7-day intervals for 12 weeks while continued to be fed the HFD. One group of mice were fed a matched low fat diet (LFD) and injected with saline throughout the study to serve as the lean control of various measurements. Two cohorts, with n=5 in each group, have been separately conducted. Mice were housed in groups of 5. Similar results were obtained in the two independent cohorts. Data of one cohort of mice were presented in Examples 23-28.

[2] = Prevention of HFD-induced obesity, female mice; format: in vivo, C57BL/6J female mice; conditions: 300U weekly
Text: FIG. 21 illustrates that concurrent treatment with 300U N-ABD094-rhArg (SEQ ID, NO: 50) [HFD(rhArg) group] once a week could effectively prevent HFD-induced obesity in C57BL/6J female mice. (A) Bodyweight of mice fed a HFD from 8 week old for 12 weeks, and currently treated with N-ABD094-rhArg or vehicle. Vehicle-treated female mice fed a LFD served as the lean control [LFD(vehicle) group]. (B) Weight of fat pad at main visceral (perigonadal, perirenal and mesenteric) and subcutaneous (inguinal) depots. *P<0.05, one-way ANOVA followed by Fisher's LSD. Data are expressed as mean±SEM, n=5 for each group.
FIG. 22 illustrates that concurrent treatment with 300U N-ABD094-rhArg (SEQ ID NO: 50) [HFD(rhArg) group] once a week could effectively prevent HFD-induced insulin resistance and glucose intolerance in C57BL/6J female mice. (A) Insulin tolerance test (ITT) conducted at 7 week after feeding a HFD. (B) Glucose tolerance test (GTT) conducted at 11 week after feeding a HFD. ITT and GTT results are expressed as area under the curve (AUC). *P<0.05, one-way ANOVA followed by Fisher's LSD. Data are expressed as mean±SEM, n=5 for each group.
After confirming the anti-obesity effect of N-ABD094-rhArg (SEQ ID NO: 50) on male mice, the effect of N-ABD094-rhArg (SEQ ID NO: 50) on female mice (n=5 in each group) was studied to determine if there was any sex difference.

plasma arginine = assay: Plasma arginine after single i.p. 500U N-ABD094-rhArg (LC-MS/MS); format: in vivo, C57BL/6J male mice
Protocol: Each time point represents mean±SEM of 5 mice.
Fifty C57BL/6J male mice (10-12 weeks of age) were used in this study. A single dose of 500U N-ABD094-rhArg (SEQ ID NO: 50) was administered to the mouse via i.p. injection. Blood samples were collected from the saphenous vein using heparinized capillary tubes, and were centrifuged at 800×g to obtain plasma.
Following injection, serum was collected at Hour 2, Hour 4, Hour 8, Hour 16, Hour 24 (Day 1) and from Day 2 to Day 12 at 24-hour intervals, and from Day 12 to Day 30 at 72-hour intervals. To strike a balance between the number of animals used and to minimize the effect on results of pharmacokinetics and pharmacodynamics study caused by removal of N-ABD094-rhArg (SEQ ID NO: 50) from the mouse as a consequence of blood collection, mice were divided into 10 groups, with n=5 in each group, and subjected to blood collection at the indicated time-point(s) shown in brackets: Group 1 (Hour 2), Group 2 (Hour 4), Group 3 (Hour 8), Group 4 (Hour 16), Group 5 (Hour 24), Group 6 (Day 2, Day 7, Day 12), Group 7 (Day 3, Day 8, Day 18), Group 8 (Day 4, Day 9, Day 21), Group 9 (Day 5, Day 10, Day 15, Day 24), Group 10 (Day 0, Day 6, Day 11, Day 27, Day 30).

B1: N-ABD094-rhArg: albumin binding domain ABD094 fused N-terminally to recombinant human arginase I, SEQ ID NO: 50 (protein)
chain: MHHHHHHDEAVDANSLAEAKEAANAELDSYGVSDFYKRLIDKAKTVEGVEALKDAILAALPSGSNNNNNNGSGGMSAKSRTIGIIGAPFSKGQPRGGVEEGPTVLRKAGLLEKLKEQECDVKDYGDLPFADIPNDSPFQIVKNPRSVGKASEQLAGKVAEVKKNGRISLVLGGDHSLAIGSISGHARVHPDLGVIWVDAHTDINTPLTTTSGNLHGQPVSFLLKELKGKIPDVPGFSWVTPCISAKDIVYIGLRDVDPGEHYILKTLGIKYFSMTEVDRLGIGKVMEETLSYLLGRKKRPIHLSFDVDGLDPSFTPATGTPVVGGLTYREGLYITEEIYKTGLLSGLDIMEVNPSLGKTPEEVTRTVNTAVAITLACFGLAREGNHKPIDYLNPPK
modifications: Mn2+; N-ABD094-rhArg, Synthesized in the Lab
For B1, the HOMA-IR score ([1]; 4 weeks after treatment (35.1 prior to treatment)) was 1.2, the “Mcp1 and Tgfb expression in pancreas” value ([1]; 12 weeks) was “significantly downregulate” and the “Mcp1 expression in perigonadal WAT” value ([1]; 12 weeks) was “significantly downregulated”. The “WAT within the pancreas and heart (histology)” value ([1]; 12 weeks) was “prominent reduction”, the “amount of collagen fibres in kidney (Sirius red)” value ([1]; 12 weeks) was “prominently reduced” and the “anti-inflammatory genes (Il10, Il22, Infg) in liver” value ([1]; 12 weeks) was “markedly upregulate”. The “lipid droplets in liver (oil red O)” value ([1]; 12 weeks) was “dramatic clearance”, the liver triglyceride concentrations ([1]; 12 weeks) was “reduced to a level similar to the lean control” and the “plasma ALT and AST concentrations” value ([1]; 12 weeks) was “comparable to the lean control”. The “profibrotic gene Col1a1 in kidney” value ([1]; 12 weeks) was “greatly suppressed”, the “profibrotic gene Tgfb in liver” value ([1]; 12 weeks) was “restored to a level similar to the lean control” and the “proinflammatory genes (Il1a, Il1b) in liver” value ([1]; 12 weeks) was “significantly downregulate”. For the same molecule, the “proinflammatory genes (Mcp1, Tnfa, Il1b) in kidney, downregulated to” value ([1]; 12 weeks) was “levels similar to the lean control”, the “serum concentrations of Mcp1” value ([1]; 12 weeks) was “corrected to a level similar to the lean control mice” and the “triglyceride concentrations in kidney, pancreas, heart and skeletal muscle” value ([1]; 12 weeks) was “restored a level similar to the lean control”. The “vacuoles in renal tubules and lipids in glomeruli (histology)” value ([1]; 12 weeks) was “marked reduction”, the “weight of kidney, pancreas and heart” value ([1]; 12 weeks, to a level similar to lean control) was “significantly reduce” and the reduction of bodyweight ([1]; 600-700U at 7-day intervals, by 5 weeks, HFD continued) was “over 30%”. The “fasting plasma leptin and total cholesterol levels” value ([1]; 600-700U weekly) was “markedly reduced to normal levels”, the “adipocyte size in WAT (histology)” value ([1]; 600-700U weekly, 12 weeks) was “prominent diminution” and the “weight of fat pad at visceral and subcutaneous depots” value ([1]; 600-700U weekly, 12 weeks) was “significantly reduced”. The “mRNA levels of lipogenesis related genes in liver” value ([1]; 600U weekly, 12 weeks) was “significantly downregulated”, the “glucose tolerance (GTT)” value ([1]; by 3 weeks of treatment) was “significant improvement” and the “fasting blood glucose and plasma insulin” value ([1]; by 4 weeks of treatment) was “restored to levels similar to the lean control mice”. The “insulin sensitivity (ITT)” value ([1]; by 4 weeks of treatment, comparable to lean control) was “marked increase”, the “glucose tolerance (GTT)” value ([1]; by 7 weeks of treatment, level similar to lean control) was “fully restored” and the “protection from weight gain and excessive accumulation of WAT” value ([2]; 12 weeks) was “similarly effective”. The “insulin sensitivity (ITT) and glucose tolerance (GTT)” value ([2]; ITT week 7, GTT week 11) was “improve”, the “plasma arginine concentration reached within 2 hour after injection” value (plasma arginine; 500U i.p.) was 1 µM and the “Plasma arginine concentrations (Mean of 5 mice ± SEM)” value (plasma arginine; Day 2 after i.p. 500U) was 0.944 ± 0.007 µM. For the same molecule, the “Plasma arginine concentrations (Mean of 5 mice ± SEM)” value (plasma arginine; Day 3 after i.p. 500U) was 0.965 ± 0.008 µM, the “Plasma arginine concentrations (Mean of 5 mice ± SEM)” value (plasma arginine; Day 4 after i.p. 500U) was 0.535 ± 0.121 µM and the “Plasma arginine concentrations (Mean of 5 mice ± SEM)” value (plasma arginine; Day 5 after i.p. 500U) was 0.681 ± 0.043 µM. The “Plasma arginine concentrations (Mean of 5 mice ± SEM)” value (plasma arginine; Day 6 after i.p. 500U) was 0.896 ± 0.089 µM, the “Plasma arginine concentrations (Mean of 5 mice ± SEM)” value (plasma arginine; Day 7 after i.p. 500U) was 0.792 ± 0.135 µM and the “Plasma arginine concentrations (Mean of 5 mice ± SEM)” value (plasma arginine; Day 8 after i.p. 500U) was 0.916 ± 0.079 µM. For the same molecule, the “Plasma arginine concentrations (Mean of 5 mice ± SEM)” value (plasma arginine; Day 9 after i.p. 500U) was 1.224 ± 0.178 µM, the “Plasma arginine concentrations (Mean of 5 mice ± SEM)” value (plasma arginine; Day 10 after i.p. 500U) was 0.721 ± 0.054 µM and the “Plasma arginine concentrations (Mean of 5 mice ± SEM)” value (plasma arginine; Day 11 after i.p. 500U) was 3.828 ± 1.511 µM. The “Plasma arginine concentrations (Mean of 5 mice ± SEM)” value (plasma arginine; Day 12 after i.p. 500U) was 7.607 ± 2.325 µM, the “Plasma arginine concentrations (Mean of 5 mice ± SEM)” value (plasma arginine; Day 15 after i.p. 500U) was 31.283 ± 4.569 µM and the “Plasma arginine concentrations (Mean of 5 mice ± SEM)” value (plasma arginine; Day 18 after i.p. 500U) was 48.648 ± 3.989 µM. The “Plasma arginine concentrations (Mean of 5 mice ± SEM)” value (plasma arginine; Day 21 after i.p. 500U) was 73.55 ± 3.76 µM, the “Plasma arginine concentrations (Mean of 5 mice ± SEM)” value (plasma arginine; Day 24 after i.p. 500U) was 76.07 ± 4.92 µM and the “Plasma arginine concentrations (Mean of 5 mice ± SEM)” value (plasma arginine; Day 27 after i.p. 500U) was 111.09 ± 6.21 µM. For the same molecule, the “Plasma arginine concentrations (Mean of 5 mice ± SEM)” value (plasma arginine; Day 30 after i.p. 500U) was 110.91 ± 3.81 µM, the “Plasma arginine concentrations (Mean of 5 mice ± SEM)” value (plasma arginine; Hour 2 after i.p. 500U) was 1.007 ± 0.013 µM and the “Plasma arginine concentrations (Mean of 5 mice ± SEM)” value (plasma arginine; Hour 4 after i.p. 500U) was 0.934 ± 0.021 µM. For the same molecule, the “Plasma arginine concentrations (Mean of 5 mice ± SEM)” value (plasma arginine; Hour 8 after i.p. 500U) was 0.912 ± 0.006 µM, the “Plasma arginine concentrations (Mean of 5 mice ± SEM)” value (plasma arginine; Hour 16 after i.p. 500U) was 0.943 ± 0.010 µM and the “Plasma arginine concentrations (Mean of 5 mice ± SEM)” value (plasma arginine; Hour 24 after i.p. 500U) was 0.934 ± 0.007 µM.
